From patent US20240279278A1, “NMU RECEPTOR 2 AGONISTS” (Boehringer Ingelheim International GmbH, priority 2023, published 2024) come the findings set out here.

T1: human neuromedin U receptor 1 (human, UniProt Q9HB89 24-426)
T1 sequence (looked up): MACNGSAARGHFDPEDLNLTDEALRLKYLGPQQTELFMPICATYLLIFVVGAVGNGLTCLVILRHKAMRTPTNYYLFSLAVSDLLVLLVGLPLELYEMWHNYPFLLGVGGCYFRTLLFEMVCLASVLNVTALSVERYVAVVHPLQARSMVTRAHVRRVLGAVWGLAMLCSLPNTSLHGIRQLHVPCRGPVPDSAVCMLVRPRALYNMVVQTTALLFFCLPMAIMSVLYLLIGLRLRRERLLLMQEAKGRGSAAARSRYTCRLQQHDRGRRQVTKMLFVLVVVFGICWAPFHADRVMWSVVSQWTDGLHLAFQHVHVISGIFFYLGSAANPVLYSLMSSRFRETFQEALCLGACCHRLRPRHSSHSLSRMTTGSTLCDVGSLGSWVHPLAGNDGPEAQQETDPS

B1: C20DA-gGlu4-Sar15-AEPipAc-Tyr-Phe-NMeLeu-Nle-Dbu-NMeAla-Arg-Gly-NH2 (peptide)
peptide: EEEEXXXXXXXXXXXXXXXXYFLXXARG
HELM: PEPTIDE1{[O=C(O)CCCCCCCCCCCCCCCCCCC(=O)[*:2]].[gGlu].[gGlu].[gGlu].[gGlu].[Sar].[Sar].[Sar].[Sar].[Sar].[Sar].[Sar].[Sar].[Sar].[Sar].[Sar].[Sar].[Sar].[Sar].[Sar].[O=C(CN1CCN(CCN[*:1])CC1)[*:2]].Y.F.[meL].[Nle].[Dab].[meA].R.G.[am]}$$$$V2.0
SMILES: CCCC[C@H](NC(=O)[C@H](CC(C)C)N(C)C(=O)[C@H](Cc1ccccc1)NC(=O)[C@H](Cc1ccc(O)cc1)NC(=O)CN1CCN(CCNC(=O)CN(C)C(=O)CN(C)C(=O)CN(C)C(=O)CN(C)C(=O)CN(C)C(=O)CN(C)C(=O)CN(C)C(=O)CN(C)C(=O)CN(C)C(=O)CN(C)C(=O)CN(C)C(=O)CN(C)C(=O)CN(C)C(=O)CN(C)C(=O)CN(C)C(=O)CC[C@H](NC(=O)CC[C@H](NC(=O)CC[C@H](NC(=O)CC[C@H](NC(=O)CCCCCCCCCCCCCCCCCCC(=O)O)C(=O)O)C(=O)O)C(=O)O)C(=O)O)CC1)C(=O)N[C@@H](CCN)C(=O)N(C)[C@@H](C)C(=O)N[C@@H](CCCNC(=N)N)C(=O)NCC(N)=O
B2: C18DA-gGlu3-Sar15-PipAc-Tyr-Phe-NMeLeu-Nle-Dbu-NMeAla-Arg-Gly-NH2 (peptide)
peptide: EEEXXXXXXXXXXXXXXXXYFLXXARG
HELM: PEPTIDE1{[O=C(O)CCCCCCCCCCCCCCCCC(=O)[*:2]].[gGlu].[gGlu].[gGlu].[Sar].[Sar].[Sar].[Sar].[Sar].[Sar].[Sar].[Sar].[Sar].[Sar].[Sar].[Sar].[Sar].[Sar].[Sar].[O=C(CN1CCN([*:1])CC1)[*:2]].Y.F.[meL].[Nle].[Dab].[meA].R.G.[am]}$$$$V2.0
SMILES: CCCC[C@H](NC(=O)[C@H](CC(C)C)N(C)C(=O)[C@H](Cc1ccccc1)NC(=O)[C@H](Cc1ccc(O)cc1)NC(=O)CN1CCN(C(=O)CN(C)C(=O)CN(C)C(=O)CN(C)C(=O)CN(C)C(=O)CN(C)C(=O)CN(C)C(=O)CN(C)C(=O)CN(C)C(=O)CN(C)C(=O)CN(C)C(=O)CN(C)C(=O)CN(C)C(=O)CN(C)C(=O)CN(C)C(=O)CN(C)C(=O)CC[C@H](NC(=O)CC[C@H](NC(=O)CC[C@H](NC(=O)CCCCCCCCCCCCCCCCC(=O)O)C(=O)O)C(=O)O)C(=O)O)CC1)C(=O)N[C@@H](CCN)C(=O)N(C)[C@@H](C)C(=O)N[C@@H](CCCNC(=N)N)C(=O)NCC(N)=O
B3: C20DA-gGlu3-Sar15-PipAc-Tyr-Phe-NMeLeu-Nle-Orn-Pro-Arg-Gly-NH2 (peptide)
peptide: EEEXXXXXXXXXXXXXXXXYFLXXPRG
HELM: PEPTIDE1{[O=C(O)CCCCCCCCCCCCCCCCCCC(=O)[*:2]].[gGlu].[gGlu].[gGlu].[Sar].[Sar].[Sar].[Sar].[Sar].[Sar].[Sar].[Sar].[Sar].[Sar].[Sar].[Sar].[Sar].[Sar].[Sar].[O=C(CN1CCN([*:1])CC1)[*:2]].Y.F.[meL].[Nle].[Orn].P.R.G.[am]}$$$$V2.0
SMILES: CCCC[C@H](NC(=O)[C@H](CC(C)C)N(C)C(=O)[C@H](Cc1ccccc1)NC(=O)[C@H](Cc1ccc(O)cc1)NC(=O)CN1CCN(C(=O)CN(C)C(=O)CN(C)C(=O)CN(C)C(=O)CN(C)C(=O)CN(C)C(=O)CN(C)C(=O)CN(C)C(=O)CN(C)C(=O)CN(C)C(=O)CN(C)C(=O)CN(C)C(=O)CN(C)C(=O)CN(C)C(=O)CN(C)C(=O)CN(C)C(=O)CC[C@H](NC(=O)CC[C@H](NC(=O)CC[C@H](NC(=O)CCCCCCCCCCCCCCCCCCC(=O)O)C(=O)O)C(=O)O)C(=O)O)CC1)C(=O)N[C@@H](CCCN)C(=O)N1CCC[C@H]1C(=O)N[C@@H](CCCNC(=N)N)C(=O)NCC(N)=O
B4: C20DA-gGlu3-Sar12-PipAc-Tyr-Phe-NMeLeu-Nle-Arg-Pro-Arg-Gly-NH2 (peptide)
peptide: EEEXXXXXXXXXXXXXYFLXRPRG
HELM: PEPTIDE1{[O=C(O)CCCCCCCCCCCCCCCCCCC(=O)[*:2]].[gGlu].[gGlu].[gGlu].[Sar].[Sar].[Sar].[Sar].[Sar].[Sar].[Sar].[Sar].[Sar].[Sar].[Sar].[Sar].[O=C(CN1CCN([*:1])CC1)[*:2]].Y.F.[meL].[Nle].R.P.R.G.[am]}$$$$V2.0
SMILES: CCCC[C@H](NC(=O)[C@H](CC(C)C)N(C)C(=O)[C@H](Cc1ccccc1)NC(=O)[C@H](Cc1ccc(O)cc1)NC(=O)CN1CCN(C(=O)CN(C)C(=O)CN(C)C(=O)CN(C)C(=O)CN(C)C(=O)CN(C)C(=O)CN(C)C(=O)CN(C)C(=O)CN(C)C(=O)CN(C)C(=O)CN(C)C(=O)CN(C)C(=O)CN(C)C(=O)CC[C@H](NC(=O)CC[C@H](NC(=O)CC[C@H](NC(=O)CCCCCCCCCCCCCCCCCCC(=O)O)C(=O)O)C(=O)O)C(=O)O)CC1)C(=O)N[C@@H](CCCNC(=N)N)C(=O)N1CCC[C@H]1C(=O)N[C@@H](CCCNC(=N)N)C(=O)NCC(N)=O
B5: C20DA-gGlu4-Sar12-AEPipAc-Tyr-Phe-NMeLeu-Nle-Dbu-Pro-Arg-Gly-NH2 (peptide)
peptide: EEEEXXXXXXXXXXXXXYFLXXPRG
HELM: PEPTIDE1{[O=C(O)CCCCCCCCCCCCCCCCCCC(=O)[*:2]].[gGlu].[gGlu].[gGlu].[gGlu].[Sar].[Sar].[Sar].[Sar].[Sar].[Sar].[Sar].[Sar].[Sar].[Sar].[Sar].[Sar].[O=C(CN1CCN(CCN[*:1])CC1)[*:2]].Y.F.[meL].[Nle].[Dab].P.R.G.[am]}$$$$V2.0
SMILES: CCCC[C@H](NC(=O)[C@H](CC(C)C)N(C)C(=O)[C@H](Cc1ccccc1)NC(=O)[C@H](Cc1ccc(O)cc1)NC(=O)CN1CCN(CCNC(=O)CN(C)C(=O)CN(C)C(=O)CN(C)C(=O)CN(C)C(=O)CN(C)C(=O)CN(C)C(=O)CN(C)C(=O)CN(C)C(=O)CN(C)C(=O)CN(C)C(=O)CN(C)C(=O)CN(C)C(=O)CC[C@H](NC(=O)CC[C@H](NC(=O)CC[C@H](NC(=O)CC[C@H](NC(=O)CCCCCCCCCCCCCCCCCCC(=O)O)C(=O)O)C(=O)O)C(=O)O)C(=O)O)CC1)C(=O)N[C@@H](CCN)C(=O)N1CCC[C@H]1C(=O)N[C@@H](CCCNC(=N)N)C(=O)NCC(N)=O
B6: C18DA-gGlu4-Sar12-AEPipAc-Tyr-Phe-NMeLeu-Nle-Arg-Pro-Arg-Gly-NH2 (peptide)
peptide: EEEEXXXXXXXXXXXXXYFLXRPRG
HELM: PEPTIDE1{[O=C(O)CCCCCCCCCCCCCCCCC(=O)[*:2]].[gGlu].[gGlu].[gGlu].[gGlu].[Sar].[Sar].[Sar].[Sar].[Sar].[Sar].[Sar].[Sar].[Sar].[Sar].[Sar].[Sar].[O=C(CN1CCN(CCN[*:1])CC1)[*:2]].Y.F.[meL].[Nle].R.P.R.G.[am]}$$$$V2.0
SMILES: CCCC[C@H](NC(=O)[C@H](CC(C)C)N(C)C(=O)[C@H](Cc1ccccc1)NC(=O)[C@H](Cc1ccc(O)cc1)NC(=O)CN1CCN(CCNC(=O)CN(C)C(=O)CN(C)C(=O)CN(C)C(=O)CN(C)C(=O)CN(C)C(=O)CN(C)C(=O)CN(C)C(=O)CN(C)C(=O)CN(C)C(=O)CN(C)C(=O)CN(C)C(=O)CN(C)C(=O)CC[C@H](NC(=O)CC[C@H](NC(=O)CC[C@H](NC(=O)CC[C@H](NC(=O)CCCCCCCCCCCCCCCCC(=O)O)C(=O)O)C(=O)O)C(=O)O)C(=O)O)CC1)C(=O)N[C@@H](CCCNC(=N)N)C(=O)N1CCC[C@H]1C(=O)N[C@@H](CCCNC(=N)N)C(=O)NCC(N)=O
B7: C20DA-gGlu4-Sar15-AEPipAc-Tyr-Phe-NMeLeu-Nle-Orn-NMeAla-Arg-Gly-NH2 (peptide)
peptide: EEEEXXXXXXXXXXXXXXXXYFLXXARG
HELM: PEPTIDE1{[O=C(O)CCCCCCCCCCCCCCCCCCC(=O)[*:2]].[gGlu].[gGlu].[gGlu].[gGlu].[Sar].[Sar].[Sar].[Sar].[Sar].[Sar].[Sar].[Sar].[Sar].[Sar].[Sar].[Sar].[Sar].[Sar].[Sar].[O=C(CN1CCN(CCN[*:1])CC1)[*:2]].Y.F.[meL].[Nle].[Orn].[meA].R.G.[am]}$$$$V2.0
SMILES: CCCC[C@H](NC(=O)[C@H](CC(C)C)N(C)C(=O)[C@H](Cc1ccccc1)NC(=O)[C@H](Cc1ccc(O)cc1)NC(=O)CN1CCN(CCNC(=O)CN(C)C(=O)CN(C)C(=O)CN(C)C(=O)CN(C)C(=O)CN(C)C(=O)CN(C)C(=O)CN(C)C(=O)CN(C)C(=O)CN(C)C(=O)CN(C)C(=O)CN(C)C(=O)CN(C)C(=O)CN(C)C(=O)CN(C)C(=O)CN(C)C(=O)CC[C@H](NC(=O)CC[C@H](NC(=O)CC[C@H](NC(=O)CC[C@H](NC(=O)CCCCCCCCCCCCCCCCCCC(=O)O)C(=O)O)C(=O)O)C(=O)O)C(=O)O)CC1)C(=O)N[C@@H](CCCN)C(=O)N(C)[C@@H](C)C(=O)N[C@@H](CCCNC(=N)N)C(=O)NCC(N)=O
B8: C20DA-gGlu4-Sar12-AEPipAc-Tyr-Phe-NMeLeu-Nle-Orn-NMeAla-Arg-Gly-NH2 (peptide)
peptide: EEEEXXXXXXXXXXXXXYFLXXARG
HELM: PEPTIDE1{[O=C(O)CCCCCCCCCCCCCCCCCCC(=O)[*:2]].[gGlu].[gGlu].[gGlu].[gGlu].[Sar].[Sar].[Sar].[Sar].[Sar].[Sar].[Sar].[Sar].[Sar].[Sar].[Sar].[Sar].[O=C(CN1CCN(CCN[*:1])CC1)[*:2]].Y.F.[meL].[Nle].[Orn].[meA].R.G.[am]}$$$$V2.0
SMILES: CCCC[C@H](NC(=O)[C@H](CC(C)C)N(C)C(=O)[C@H](Cc1ccccc1)NC(=O)[C@H](Cc1ccc(O)cc1)NC(=O)CN1CCN(CCNC(=O)CN(C)C(=O)CN(C)C(=O)CN(C)C(=O)CN(C)C(=O)CN(C)C(=O)CN(C)C(=O)CN(C)C(=O)CN(C)C(=O)CN(C)C(=O)CN(C)C(=O)CN(C)C(=O)CN(C)C(=O)CC[C@H](NC(=O)CC[C@H](NC(=O)CC[C@H](NC(=O)CC[C@H](NC(=O)CCCCCCCCCCCCCCCCCCC(=O)O)C(=O)O)C(=O)O)C(=O)O)C(=O)O)CC1)C(=O)N[C@@H](CCCN)C(=O)N(C)[C@@H](C)C(=O)N[C@@H](CCCNC(=N)N)C(=O)NCC(N)=O

The assay addresses T1, human neuromedin U receptor 1. Nature of the assay: cell-based or functional assay.
For the molecule B1, the “EC50 (hNMUR1) buffer” value is over 1000 nM.

For the molecule B2, the “EC50 (hNMUR1) buffer” value is over 1000 nM.

In the case of B3, the “EC50 (hNMUR1) buffer” value turned out to be 470 nM.

On to B4, for which the “EC50 (hNMUR1) buffer” value was 72 nM.

In the case of B5, the “EC50 (hNMUR1) buffer” value came out at 860 nM.

As for B6, the “EC50 (hNMUR1) buffer” value was 220 nM.

Regarding B7, the “EC50 (hNMUR1) buffer” value turned out to be 1400 nM.

In the case of B8, the “EC50 (hNMUR1) buffer” value turned out to be 1200 nM.
